Source: paper PMC11558545, “Mechanistic Insights into the Function of 14-3-3 Proteins as Negative Regulators of Brassinosteroid Signaling in Arabidopsis” (Plant and Cell Physiology, 2024)

What follows are molecules tested against T1, Arabidopsis 14-3-3 isoform kappa (14-3-3κ) (Arabidopsis thaliana, UniProt P48348) (assay: biochemical). Details: ITC; proteins auto-/transphosphorylated or expressed in E. coli or insect cells as described.
T1 construct: Full-length At14-3-3-κ^1−248 (Uniprot-ID P48348, http://uniprot.org); thioredoxin A (trxA) fusion (N, cleaved yes); 8xHis (N, cleaved yes); StrepII (N, cleaved yes); made in house; host or cells: E. coli BL21 (DE3) RIL
Type: binding
From the text: Full-length At14-3-3-κ^1−248 (Uniprot-ID P48348, http://uniprot.org), At14-3-3-λ^1−248 (P48349), At14-3-3-ω^1−259 (Q01525) or C-terminal truncated At14-3-3-κ^1−240, At14-3-3-λ^1−240 or At14-3-3-ω^1−237 isoforms and BIN2^7−380 from Arabidopsis were cloned from synthetic genes codon-optimized for expression in E. coli (Geneart, Thermofisher, Tauberbischofsheim, Germany) into vector pMH-HStrxT providing an N-terminal thioredoxin A (trxA) fusion protein containing 8xHis and StrepII affinity tags, and a tobacco etch virus protease (TEV) recognition site. Protein expression in E. coli BL21 (DE3) RIL grown to OD600nm= 0.6 was induced with 0.2 mM ispropyl β-D-galactoside in terrific broth at 16°C for 16 h. Cells were collected by centrifugation at 4500 × g for 30 min, washed in PBS buffer, centrifuged again at 4500 × g for 15 min and snap-frozen in liquid N2. For protein purification cells were resuspended in buffer A (20 mM Tris–HCl pH 8.0, 500 mM NaCl), and lysed by sonication (Branson DS450). The lysate was cleared by centrifugation at 7000 × g for 60 min and filtrated using a 0.45 µm molecular weight cutoff filter (Pall Corporation, Port Washington, NY, USA). The supernatant was loaded onto a Ni^2+ affinity column (HisTrap HP 5 mL, Cytiva Life Sciences, Freiburg im Breisgau, Germany), washed with buffer A and eluted in buffer A supplemented with 250 mM imidazole pH 8.0. The elution fractions containing the trxA-14-3-3 or trxA-BIN2 fusion proteins were loaded onto a 5 mL Strep-Tactin Superflow High Capacity column (IBA Lifesciences, Goettingen, Germany), washed with buffer A and eluted in buffer A supplemented with 2.5 mM desthiobiotin. […] Dimeric (14-3-3s) or monomeric (BIN2) peak fractions were concentrated to 10–40 mg/ml and used directly for biochemistry and crystallization experiments. Point mutations were introduced by site-directed mutagenesis and variants At14-3-3 λ^N233A and 14-3-3 λ^R136L/Y137F were purified using the same protocol as described for the wild type.
The BRI1^814−1196 and BAK1^250−615/SERK3 cytoplasmic domains were purified as previously described ([Bojar et al. 2014]). BSK1 (residues 55–512), BSU1 (residues 1–793) and BIN2 (residues 7–380) were cloned into a modified pACEBac1 plasmid ([Bieniossek et al. 2012]) providing TEV-cleavable N-terminal 8xHis and tandem StrepII affinity tags, and expressed in baculovirus-infected Trichoplusia ni Tnao cells ([Hashimoto et al. 2010]). Cells grown to a density of 1.5 × 10^6 cells ml^−1 were infected with 10 ml of virus subjected to two rounds of viral amplification per 250 ml of cells and incubated for 48 h at 28°C. […]

T1 sequence (P48348 whole entry, the tested form may be a part, canonical isoform): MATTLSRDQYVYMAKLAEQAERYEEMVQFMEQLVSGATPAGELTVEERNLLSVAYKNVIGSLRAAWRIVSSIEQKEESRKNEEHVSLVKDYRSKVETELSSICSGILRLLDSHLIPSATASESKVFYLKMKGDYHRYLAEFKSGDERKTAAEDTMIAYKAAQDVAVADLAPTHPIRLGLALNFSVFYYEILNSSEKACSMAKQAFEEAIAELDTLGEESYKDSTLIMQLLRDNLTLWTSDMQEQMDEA

Molecule	binding to 14-3-3κ, in words
BSK1^55-512: BSK1 (residues 55–512) after incubation with BRI1^814−1196 (protein, phosphorylated by incubation with BRI1^814−1196 (mainly Ser230); left off: 8xHis, N-terminal, cleaved | tandem StrepII, N-terminal, cleaved) IPSFSEFSFADLKAATNNFSSDNIVSESGEKAPNLVYKGRLQNRRWIAVKKFTKMAWPEPKQFAEEAWGVGKLRHNRLANLIGYCCDGDERLLVAEFMPNDTLAKHLFHWENQTIEWAMRLRVGYYIAEALDYCSTEGRPLYHDLNAYRVLFDEDGDPRLSCFGLMKNSRDGKSYSTNLAYTPPEYLRNGRVTPESVTYSFGTVLLDLLSGKHIPPSHALDMIRGKNIILLMDSHLEGKFSTEEATVVVELASQCLQYEPRERPNTKDLVATLAPLQTKSDVPSYVMLGIKKQEEAPSTPQRPLSPLGEACSRMDLTAIHQILVMTHYRDDEGTNELSFQEWTQQMKDMLDARKRGDQSFREKDFKTAIDCYSQFIDVGTMVSPTVFGRRSLCYLLCDQPDAALRDAMQAQCVYPDWPTAFYMQSVALAKLNMNTDAADMLNEAAQLEEKRQRGGRGS	No specific binding was detected
BAK1^250-615: BAK1/SERK3 cytoplasmic domain (residues 250–615) after incubation with BRI1^814−1196 (protein, auto- and transphosphorylated by incubation with BRI1^814−1196; sites not given) RRKKPQDHFFDVPAEEDPEVHLGQLKRFSLRELQVASDNFSNKNILGRGGFGKVYKGRLADGTLVAVKRLKEERTQGGELQFQTEVEMISMAVHRNLLRLRGFCMTPTERLLVYPYMANGSVASCLRERPESQPPLDWPKRQRIALGSARGLAYLHDHCDPKIIHRDVKAANILLDEEFEAVVGDFGLAKLMDYKDTHVTTAVRGTIGHIAPEYLSTGKSSEKTDVFGYGVMLLELITGQRAFDLARLANDDDVMLLDWVKGLLKEKKLEALVDVDLQGNYKDEEVEQLIQVALLCTQSSPMERPKMSEVVRMLEGDGLAERWEEWQKEEMFRQDFNYPTHHPAVSGWIIGDSTSQIENEYPSGPR	No specific binding was detected
BIN2^7-380: BIN2 (residues 7–380) expressed either in Escherichia coli or in insect cells (protein, left off: thioredoxin A, N-terminal, cleaved | 8xHis, N-terminal, cleaved | StrepII, N-terminal, cleaved, BIN2 (residues 7–380) expressed either in Escherichia coli or in insect cells) MPAAVVDGHDQVTGHIISTTIGGKNGEPKQTISYMAERVVGTGSFGIVFQAKCLETGETVAIKKVLQDRRYKNRELQLMRVMDHPNVVCLKHCFFSTTSKDELFLNLVMEYVPESLYRVLKHYSSANQRMPLVYVKLYMYQIFRGLAYIHNVAGVCHRDLKPQNLLVDPLTHQVKICDFGSAKQLVKGEANISYICSRFYRAPELIFGATEYTTSIDIWSAGCVLAELLLGQPLFPGENAVDQLVEIIKVLGTPTREEIRCMNPHYTDFRFPQIKAHPWHKIFHKRMPPEAIDFASRLLQYSPSLRCTALEACAHPFFDELREPNARLPNGRPFPPLFNFKQEVAGSSPELVNKLIPDHIKRQLGLSFLNQSGT	No specific binding was detected
BRI1^814-1196: isolated BRI1 cytoplasmic domain (residues 814–1196) after incubation with the BAK1 cytoplasmic domain (protein, auto- and transphosphorylated by incubation with BAK1^250−615; sites not given, isolated BRI1 cytoplasmic domain (residues 814–1196) after incubation with the BAK1 cytoplasmic domain) GREMRKRRRKKEAELEMYAEGHGNSGDRTANNTNWKLTGVKEALSINLAAFEKPLRKLTFADLLQATNGFHNDSLIGSGGFGDVYKAILKDGSAVAIKKLIHVSGQGDREFMAEMETIGKIKHRNLVPLLGYCKVGDERLLVYEFMKYGSLEDVLHDPKKAGVKLNWSTRRKIAIGSARGLAFLHHNCSPHIIHRDMKSSNVLLDENLEARVSDFGMARLMSAMDTHLSVSTLAGTPGYVPPEYYQSFRCSTKGDVYSYGVVLLELLTGKRPTDSPDFGDNNLVGWVKQHAKLRISDVFDPELMKEDPALEIELLQHLKVAVACLDDRAWRRPTMVQVMAMFKEIQAGSGIDSQSTIRSIEDGGFSTIEMVDMSIKEVPEGKL	No specific binding was detected
